The text below walks through data of patent US20240301062A1 (BEIGENE SWITZERLAND, published 2024).

Assay [1] addresses T1, Human CDεγ (recombinant human CD3εγ) (human, UniProt P07766 23-126; P09693 23-116).
T1 construct: Printed as CDεγ; read as CD3εγ
Description: SPR, recombinant protein. How it is done:
(§1) The binding kinetics of CLDN6×CD3 BsAb BG143P were measured using SPR. SPR was used to measure the on-rate constant (kₐ) and off-rate constant (kd) of the antibodies to recombinant proteins of CDεγ and then determined the affinity constant (KD).
(In general: Surface plasmon resonance follows binding to a sensor surface in real time, without labels.)

Assay [2] addresses T2, Cyno CDεγ (recombinant cynomolgus CD3εγ) (cyno, UniProt Q95LI5 22-117; Q95LI7 23-113).
T2 construct: Printed as CDεγ; read as CD3εγ
T2 sequence (looked up) 1: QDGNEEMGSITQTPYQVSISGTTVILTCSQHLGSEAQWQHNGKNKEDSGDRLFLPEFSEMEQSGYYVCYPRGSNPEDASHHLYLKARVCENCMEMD
T2 sequence (looked up) 2: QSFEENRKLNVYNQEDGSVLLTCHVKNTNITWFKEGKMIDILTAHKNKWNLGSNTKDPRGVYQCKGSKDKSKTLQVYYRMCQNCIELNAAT
Description: SPR, recombinant protein. How it is done: as §1

Assay [3] deals with T3, human native CD3 on live cells (HuT78, Jurkat) (human, UniProt P07766 23-207; P09693 23-182; P04234 22-171).
T3 construct: whole, on cells; also called human CD3
T3 sequence (P07766 23-207, chain 1 of 3): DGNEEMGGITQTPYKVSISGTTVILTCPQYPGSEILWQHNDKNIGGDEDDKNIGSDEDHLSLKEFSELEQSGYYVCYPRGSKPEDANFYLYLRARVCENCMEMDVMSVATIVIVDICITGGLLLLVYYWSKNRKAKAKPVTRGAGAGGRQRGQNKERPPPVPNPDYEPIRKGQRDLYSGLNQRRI
T3 sequence (P09693 23-182, chain 2 of 3): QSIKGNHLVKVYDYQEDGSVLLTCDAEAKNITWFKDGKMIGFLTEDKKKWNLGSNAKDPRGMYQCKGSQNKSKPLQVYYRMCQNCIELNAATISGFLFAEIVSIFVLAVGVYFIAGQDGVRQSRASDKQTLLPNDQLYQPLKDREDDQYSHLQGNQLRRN
T3 sequence (P04234 22-171, chain 3 of 3): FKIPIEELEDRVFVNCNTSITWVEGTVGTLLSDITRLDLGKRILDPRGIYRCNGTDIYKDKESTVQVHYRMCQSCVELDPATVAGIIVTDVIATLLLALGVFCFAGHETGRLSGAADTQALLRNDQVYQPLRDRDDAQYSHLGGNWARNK
In words: FACS, CD3-expressing Jurkat cells. A general note: A flow cytometer gives signals particle by particle.

Assay [4] concerns the target T4, human claudin 6 (CLDN6) (human, UniProt P56747 1-220).
T4 construct: also called human CLDN6; hCLDN6
T4 sequence: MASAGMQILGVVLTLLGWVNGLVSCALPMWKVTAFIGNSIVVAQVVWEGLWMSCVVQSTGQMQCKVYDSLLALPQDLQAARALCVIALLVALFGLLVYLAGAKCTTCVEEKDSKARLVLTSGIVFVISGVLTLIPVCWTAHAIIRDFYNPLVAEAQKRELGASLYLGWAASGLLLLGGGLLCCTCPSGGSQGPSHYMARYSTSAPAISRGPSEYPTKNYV
Description: FACS, CLDN6-expressing PA-1 cells.

In assay [5] the target is T5, human claudin 9 (CLDN9) (human, UniProt O95484 1-217).
T5 construct: also called human CLDN9
T5 sequence: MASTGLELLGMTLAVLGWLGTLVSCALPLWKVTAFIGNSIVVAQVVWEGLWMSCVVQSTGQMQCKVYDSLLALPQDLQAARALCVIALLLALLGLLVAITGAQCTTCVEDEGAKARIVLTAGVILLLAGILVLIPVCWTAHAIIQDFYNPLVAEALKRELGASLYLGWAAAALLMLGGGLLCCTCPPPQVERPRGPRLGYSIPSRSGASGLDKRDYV
Description: flow cytometry on NCI-H1299 cells stably expressing human CLDN9, anti-human Fc gamma secondary, MFI (AF647) [right panel]. The procedure:
Expressing vectors of human CLDN6 and CLDN9 were established by inserting synthesized cDNA coding corresponding sequences into mammalian expression vector. NCI-H1299 stable cells expressing human CLDN6 and CLDN9 were generated by transfection of corresponding plasmids. Cells were suspended at a concentration of 1×10⁶ cells in FACS buffer (2% FBS, 1×PBS), and the cell suspension was dispensed into a U-bottom 96-well plate ([…]). Antibody was added thereto at final top concentration of 100 nM and 2× dilute for 11 dilutions, then mixed with cells and incubated at 4° C. for 1 hour. After centrifugation, the reaction solution was removed, and the cells were washed twice with 200 μL/well FACS buffer. Then, APC-anti human Fcγ was diluted 500-fold with FACS buffer and added as secondary antibodies to the cells. The cells were incubated at 4° C. for 30 mins, then washed twice as above, and suspended in 100 μL FACS buffer. The cell suspension was subjected to flow cytometry.

In assay [6] the target is T5, human claudin 9 (CLDN9). Description: flow cytometry, CHOK1/human CLDN9-GFP cells.
A further assay deals with T6, cyno CLDN6 (cyno).
T6 construct: whole, on cells; also called cynomolgus CLDN6
Description: flow cytometry, CHOK1/Cyno CLDN6-GFP cells.

The target of assay [7] is T4, human claudin 6 (CLDN6). In words: flow cytometry, CHOK1/human CLDN6-GFP cells.
The target of another assay is T7, mouse CLDN6 (mouse, UniProt Q9Z262 1-219).
T7 construct: whole, on cells
T7 sequence (looked up): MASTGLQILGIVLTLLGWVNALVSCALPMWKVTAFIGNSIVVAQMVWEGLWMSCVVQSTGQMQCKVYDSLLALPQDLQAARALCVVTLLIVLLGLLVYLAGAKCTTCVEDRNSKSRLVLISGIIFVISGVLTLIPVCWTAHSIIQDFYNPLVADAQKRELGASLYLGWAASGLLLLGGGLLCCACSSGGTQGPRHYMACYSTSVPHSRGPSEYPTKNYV
Description: flow cytometry, CHOK1/mouse CLDN6-GFP cells.

For assay [8], the target named is T4, human claudin 6 (CLDN6). In words: flow cytometry, PA-1 cells (endogenous CLDN6).

T1 sequence (P07766 23-126, chain 1 of 2): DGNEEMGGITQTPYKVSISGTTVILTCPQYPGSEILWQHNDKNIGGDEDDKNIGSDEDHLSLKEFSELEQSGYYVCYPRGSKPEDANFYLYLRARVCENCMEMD
T1 sequence (P09693 23-116, chain 2 of 2): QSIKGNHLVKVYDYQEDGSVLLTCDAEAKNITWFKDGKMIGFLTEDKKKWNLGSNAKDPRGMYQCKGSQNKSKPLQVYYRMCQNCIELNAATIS

B1: CLDN6xCD3 BsAb BG143P (bispecific antibody, human IgG1, kappa)
chain: EVQLVESGGGLVQPGGSLRLSCAASGFTFSTYAMNWVRQAPGKGLEWVGRIRSKYNNYATYYADSVKGRFTISRDDAKNSLYLQMNSLRAEDTAVYYCVRHGNFGSSYVSWFAYWGQGTLVTVSSGGGGSGGGGSGGGGSEIVVTQSPATLSVSPGERATLSCRSSTGAVTTSNYANWVQQKPGQAPRGLIGGTNKRAPGIPARFSGSLSGDEATLTISSLQSEDFAVYYCALWYSNLWVFGGGTKVEIKEPKSSDKTHTCPPCPAPPAAGPSVFLFPPKPKDTLMISRTPEVTCVVVDVSHEDPEVKFNWYVDGVEVHNAKTKPREEQYNSTYRVVSVLTVLHQDWLNGKEYKCKVSNKALAAPIEKTISKAKGQPREPQVYTLPPSRDELTKNQVSLWCLVKGFYPSDIAVEWESNGQPENNYKTTPPVLDSDGSFFLYSKLTVDKSRWQQGNVFSCSVMHEALHNHYTQKSLSLSPGK
heavy: EVQLQESGGGLVQPGGSLRLSCAASGYSFSDYHINWVRQAPGKGLEWVGYIYPGSGHTKYNEKFKGRFTISRDTSSNTAYLQMNSLRAEDTAVYYCARSGIYHYVSSYYFDHWGQGTLVTVSSASTKGPSVFPLAPSSKSTSGGTAALGCLVKDYFPEPVTVSWNSGALTSGVHTFPAVLQSSGLYSLSSVVTVPSSSLGTQTYICNVNHKPSNTKVDKKVEPKSCDKTHTCPPCPAPPAAGPSVFLFPPKPKDTLMISRTPEVTCVVVDVSHEDPEVKFNWYVDGVEVHNAKTKPREEQYNSTYRVVSVLTVLHQDWLNGKEYKCKVSNKALAAPIEKTISKAKGQPREPQVYTLPPSRDELTKNQVSLSCAVKGFYPSDIAVEWESNGQPENNYKTTPPVLDSDGSFFLVSKLTVDKSRWQQGNVFSCSVMHEALHNHYTQKSLSLSPGK
light: DIQMTQSPSSLSASVGDRVTITCKASQDAGSAVAWYQQKPGKAPKLLIYWASTRHTGVPSRFSGSGSGTDFTLTISSLQPEDFATYYCQQYSSYTFGGGTKLEIKRTVAAPSVFIFPPSDEQLKSGTASVVCLLNNFYPREAKVQWKVDNALQSGNSQESVTEQDSKDSTYSLSSTLTLSKADYEKHKVYACEVTHQGLSSPVTKSFNRGEC
notes: module ratio 1:1, Fc null huIgG1, knob into hole; also called CLDN6×CD3 BsAb; CLDN6×CD3 antibody
With B1, in assay [1], the Kd was determined as 8.31 nM, the koff stood at 0.0181 s⁻¹ and the kon amounted to 2.17e+06 M⁻¹ s⁻¹. Also, in assay [2], the dissociation constant Kd was 4.55 nM, the koff turned out to be 0.00599 s⁻¹ and the kon is 1.32e+06 M⁻¹ s⁻¹. In [3], this molecule gave an EC50 of 6.98 nM. For the same molecule, in the assay with human claudin 6 (CLDN6) [4], the EC50 came out at 81.3 nM. Also, the binding result with human claudin 9 (CLDN9) [5] is given as “no binding (tested: 100 nM)”.

B2: BG87P (mouse anti-CLDN6 antibody, hybridoma clone) (antibody, V domains shown)
VH: QIQLQQSGPELVKPGASVKISCKASGYSFTDYHINWVKQRPGQGLEWIGWIYPGSGYTKYNEKFKVKATLTVDTSSSTAYMHLTSLTSEDSAVYFCARSGIYHYVSSYYFDHWGQGTTLTVSS
VL: DIVMTQSHTFMSTSVGDRVSITCKASQDVGTAVAWYQQKPGQSPKLLIYWASTRHTGVPDRFTGSGSGTDFTLTISNVQSEDLADYFCQQYSSYTFGGGTKLEIK
notes: Mouse antibody purified from hybridoma supernatant on protein A; also called clone BG87P
Consider B2, for which the binding result in the assay with human claudin 9 (CLDN9) [6] is recorded as “no binding”. The EC50 in the assay with cyno CLDN6 amounted to 6.08 nM; in the assay with human claudin 6 (CLDN6) [7] it was 3.41 nM; with mouse CLDN6 it was 94.7 nM; in the assay with human claudin 6 (CLDN6) [8] it was 3.38 nM.

As usually defined, the Kd is the free concentration of one partner at which half of the binding sites on the other are occupied at equilibrium, for simple one-to-one binding. The term koff denotes a measure of how fast the partners let go of each other. For orientation: kon means the second-order rate constant of association. In general, EC50 refers to the concentration needed to bring the measured effect to its halfway point. A high value points to a less potent agent.
